From patent US20100062005A1 (University of California, published 2010) come the findings set out here.

The target in test [1] is T1, human ROR1 protein (human, UniProt Q01973 30-937).
T1 construct: Full-length ROR1 on CHO-ROR1 transfectants, CLL cells, tumour cell lines and tissues, or in their lysates (immunoprecipitation, immunoblot); also called CHO-ROR1 (CHO cells transfected to express human ROR1); ROR1 on CLL cells
The experiment in a line: flow cytometry on CD5-negative, CD10+, CD19+ marrow B lymphocyte precursors (N=9 samples).

Test [2] addresses T1, human ROR1 protein. The experiment in a line: flow cytometry, Alexa-647-4A5 against IgG2b isotype control, ZAP-70-negative CLL cases (N=36). For orientation: A flow cytometer gives signals particle by particle.
The target in test [3] is T1, human ROR1 protein. The experiment in a line: flow cytometry, Alexa-647-4A5 against IgG2b isotype control, ZAP-70-positive CLL cases (N=33).
Test [4] concerns the target T1, human ROR1 protein.

Like-named read-outs stand apart in the source and are kept apart here.

T1 sequence (Q01973 30-937 limits assumed): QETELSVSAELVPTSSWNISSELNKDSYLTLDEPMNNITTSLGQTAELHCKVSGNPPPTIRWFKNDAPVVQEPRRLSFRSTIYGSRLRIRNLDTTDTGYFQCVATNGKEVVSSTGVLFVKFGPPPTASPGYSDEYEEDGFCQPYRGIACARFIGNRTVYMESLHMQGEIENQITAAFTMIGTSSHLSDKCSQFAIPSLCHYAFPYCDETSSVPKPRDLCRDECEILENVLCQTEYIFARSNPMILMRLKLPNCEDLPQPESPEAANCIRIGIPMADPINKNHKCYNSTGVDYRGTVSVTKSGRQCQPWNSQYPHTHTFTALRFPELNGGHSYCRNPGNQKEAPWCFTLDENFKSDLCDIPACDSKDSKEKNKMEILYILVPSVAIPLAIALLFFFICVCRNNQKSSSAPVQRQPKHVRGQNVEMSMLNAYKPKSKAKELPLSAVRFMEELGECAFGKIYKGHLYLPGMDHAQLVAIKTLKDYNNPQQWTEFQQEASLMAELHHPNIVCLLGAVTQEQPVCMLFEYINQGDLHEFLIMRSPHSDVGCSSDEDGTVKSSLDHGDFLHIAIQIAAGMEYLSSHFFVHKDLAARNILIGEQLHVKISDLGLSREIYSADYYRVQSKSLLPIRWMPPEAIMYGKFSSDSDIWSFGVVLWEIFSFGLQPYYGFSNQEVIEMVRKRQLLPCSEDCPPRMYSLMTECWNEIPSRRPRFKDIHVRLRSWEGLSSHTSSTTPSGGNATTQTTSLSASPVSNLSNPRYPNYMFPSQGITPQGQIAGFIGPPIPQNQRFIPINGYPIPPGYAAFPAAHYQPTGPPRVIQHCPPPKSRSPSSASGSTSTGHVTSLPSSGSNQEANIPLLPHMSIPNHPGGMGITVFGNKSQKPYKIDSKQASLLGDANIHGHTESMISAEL

B1: 4A5 anti-ROR1 mAb (antibody, V domains shown)
VH: EVKLVESGGGLVKPGGSLKLSCAASGFTFSSYAMSWVRQIPEKRLEWVASISRGGTTYYPDSVKGRFTISRDNVRNILYLQMSSLRSEDTAMYYCGRYDYDGYYAMDYWGQGTSVTVSS
VL: DIKMTQSPSSMYASLGERVTITCKASPDINSYLSWFQQKPGKSPKTLIYRANRLVDGVPSRFSGGGSGQDYSLTINSLEYEDMGIYYCLQYDEFPYTFGGGTKLEMK
In the case of B1, the “MFI ratio (MFIR)” value in test [1] turned out to be 6.3 ratio; in test [4] it was 10 ratio. Moreover, the “average MFIR” value came out at 12.4 ratio in test [2] and 12 ratio in test [3]. In addition, the “median MFIR” value in test [2] was 12 ratio; in test [3], 12.2 ratio.
